Experiments:
[1] = biological target: soluble domain of Arabidopsis thaliana cytochrome c1 (Arabidopsis thaliana)
[2] = biological target: soluble domain of Arabidopsis thaliana cytochrome c1 (Arabidopsis thaliana); remark: listed apart in the source

Homo sapiens E104C cytochrome c mutant (from UniProt P99999 1-105) (natural protein)
distance decay factor (β) of the pCc1–hCc current after addition of wild-type hCc (12.5 μM, without C-terminal cysteine) to the medium, as an inhibition experiment [1]: 3 nm^−1 | average distance decay factor (β) of the pCc1–hCc current against the electrochemical gate potential at 200 mV constant bias; minimum at −0.25 V EC gate potential [2]: 0.5 nm^−1

Reference: paper PMC6279779
